Reference: patent US11919930B2, “Odorant receptor co-receptor” (Sumitomo Chemical Company, Limited, priority 2016, dated 2024)
“Also recorded” adds a separate entry of the source.

Test system: odorant receptor AaOR8
Assay: Aequorin luminescence measurement in HEK293FT cells co-expressing AaOR8 and a co-receptor, 1-octen-3-ol added
Format: cell-based
Conditions: 1-octen-3-ol 10^-4 to 10^-10 M; for intensity of response (relative amount of luminescence) to 1-octen-3-ol: compared to cells that expressed original AaORCO or DmORCO
Procedure: HEK293FT cells (purchased from invitrogen, Inc.) were inoculated into 10-cm Petri dishes at a concentration of 3×10^6 cells/Petri dish, and the cells were cultured in DMEM medium containing 10% FBS (manufactured by Nacalai Tesque, Inc.) for about 24 hours under the conditions of 37° C. and 5% CO2. 3 μg of any one of the co-receptor expression plasmids produced, 1.5 μg of any one of the odorant receptor expression plasmids produced, and 8 μg of Aequorin expression plasmid were mixed with 12.5 μL of Plus reagent and 31.25 μL of LIPOFECTAMINE LTX (manufactured by Invitrogen, Inc.), and the mixture was maintained for 30 minutes. Subsequently this liquid mixture was transfected into the above-mentioned cells. After 4 hours from the initiation of transfection, the cells were inoculated onto a 96-well plate at a concentration of 9×10^4 cells/well, and the cells were cultured in DMEM medium containing 10% FBS (manufactured by Nacalai Tesque, Inc.) for about 24 hours under the conditions of 37° C. and 5% CO2. Thereby, transformed cells having a co-receptor expression plasmid, an odorant receptor expression plasmid, and an aequorin expression plasmid transiently incorporated therein were obtained.
Aequorin is activated when hound to a calcium ion, and oxidizes a substrate such as coelenterazine, thus emitting light. […] Therefore, whether an odorant receptor complex functions an ion channel as a result of addition of a substance to be detected, can be measured from the change in the amount of luminescence.
A culture fluid of the transformed cells was removed, and the medium was exchanged with Hanks-HEPES (20 mM, pH 7.4) including Assay buffer (0.5 μM coelenterazine h (manufactured by Promega Corporation) and 0.3% BSA. culture system was left to stand for another 4 hours at room temperature. Subsequently, a substance to be detected, which corresponded to an odorant receptor, was added to the cell culture using FLEXSTATION 3 (manufactured by Molecular Devices, LLC), and at the same time, the amount of luminescence of the cells was measured. As a control substance, the amount of luminescence in the cells to which dimethyl sulfoxide had been added was designated as 1, and the amount or luminescence of cells to which the substance to be detected was added was calculated as a relative value.
(§1) Cells into which: • an expression plasmid of odorant receptor AaOR8; • an expression plasmid of any one of co-receptor AaORCO or DmORCO, or various chimeric co-receptors Dm-AaORCO having different positions of recombination [Dm(NT-EC1)AaORCO, Dm(NT-TM3)AaOROC, Dm(NT-TM4)AaORCO, Dm(NT-TM5)AaORCO, or Dm(NT-TM6)AaORCO]; and • an aequorin expression plasmid had been incorporated were used, and the amount of luminescence was measured as explained above. 1-Octen-3-ol was used as a substance to be detected, and 1-octen-3-ol was added to the culture fluid at a concentration of 10^−4 M, 10^−5 M, 10^−6 M, 10^−7 M, 10^−8 M, 10^−9 M, or 10^−10 M. The results are presented in FIG. 1.
as §1, with “AmORCO” for “AaORCO”, “Dm-AmORCO” for “Dm-AaORCO”, “[Dm(NT-TM3)AmOROC, Dm(NT-TM4)AmORCO, Dm(NT-TM5)AmORCO,” for “[Dm(NT-EC1)AaORCO, Dm(NT-TM3)AaOROC, Dm(NT-TM4)AaORCO, Dm(NT-TM5)AaORCO,”, “Dm(NT-TM6)AmORCO];” for “Dm(NT-TM6)AaORCO];”, “2. […]” for “1.”

Molecule | intensity of response (relative amount of luminescence) to 1-octen-3-ol | intensity of response to 1-octen-3-ol (compared to cells that expressed original AaORCO)
Dm(NT-TM4)AaORCO: chimeric co-receptor: NT to TM4 (residues 1-234) from Drosophila co-receptor, IC2 to C-terminal domain from Aedes co-receptor; SEQ ID NO:71 (protein) MTTSMQPSKYTGLVADLMPNIRAMKYSGLFMHNFTGGSAFMKKVYSSVHLVFLLMQFTFILVNMALNAEEVNELSGNTITTLFFTHCITKFIYLAVNQKNFYRTLNIWNQVNTHPLFAESDARYHSIALAKMRKLFFLVMLTTVASATAWTTITFFGDSVKMVVDHETNSSIPVEIPRLPIKSFYPWNASHGMFYMISFAFQIYYVLFSMIHSNLCDVMFCSWLIFACEQLQHLKGIMRPLMELSATLDTYRPNSAALFRVASAGSKSELILNEEKDPDTKDFDLNGIYNSKADWGAQFRAPSTLQTFGDNGINGNPNGLTKKQELMVRSAIKYWVERHKHVVRLVSAIGETYGAALLLHMLTSTIKLTLLAYQATKIDALNVYGLTVIGYLVYALAQVFLFCIFGNRLIEESSSVMEAAYSCHWYDGSEEAKTFVQIVCQQCQKAMTISGAKFFTVSLDLFASVLGAVVTYFMVLVQLK | responded more strongly to 1-octen-3-ol; also recorded: the intensity of response to 1-octen-3-ol was higher | –
Dm(NT-636)AaORCO: chimeric co-receptor: N-terminus to residue 212 from Drosophila co-receptor, residue 213 to C-terminus from Aedes co-receptor; SEQ ID NO:78 (protein) MTTSMQPSKYTGLVADLMPNIRAMKYSGLFMHNFTGGSAFMKKVYSSVHLVFLLMQFTFILVNMALNAEEVNELSGNTITTLFFTHCITKFIYLAVNQKNFYRTLNIWNQVNTHPLFAESDARYHSIALAKMRKLFFLVMLTTVASATAWTTITFFGDSVKMVVDHETNSSIPVEIPRLPIKSFYPWNASHGMFYMISFAFQIYYVLFSMIHANLADVMFCSWLLFTCEQLQHLKGIMRPLMELSATLDTYRPNSAALFRVASAGSKSELILNEEKDPDTKDFDLNGIYNSKADWGAQFRAPSTLQTFGDNGINGNPNGLTKKQELMVRSAIKYWVERHKHVVRLVSAIGETYGAALLLHMLTSTIKLTLLAYQATKIDALNVYGLTVIGYLVYALAQVFLFCIFGNRLIEESSSVMEAAYSCHWYDGSEEAKTFVQIVCQQCQKAMTISGAKFFTVSLDLFASVLGAVVTYFMVLVQLK | the intensity of response to 1-octen-3-ol was decreased | –
Dm(792)AaORCO: chimeric co-receptor: N-terminus to residue 264 from Drosophila co-receptor, residue 265 to C-terminus from Aedes co-receptor; SEQ ID NO:74 (protein) MTTSMQPSKYTGLVADLMPNIRAMKYSGLFMHNFTGGSAFMKKVYSSVHLVFLLMQFTFILVNMALNAEEVNELSGNTITTLFFTHCITKFIYLAVNQKNFYRTLNIWNQVNTHPLFAESDARYHSIALAKMRKLFFLVMLTTVASATAWTTITFFGDSVKMVVDHETNSSIPVEIPRLPIKSFYPWNASHGMFYMISFAFQIYYVLFSMIHSNLCDVMFCSWLIFACEQLQHLKGIMKPLMELSASLDTYRPNSAALFRSLSAGSKSELILNEEKDPDTKDFDLNGIYNSKADWGAQFRAPSTLQTFGDNGINGNPNGLTKKQELMVRSAIKYWVERHKHVVRLVSAIGETYGAALLLHMLTSTIKLTLLAYQATKIDALNVYGLTVIGYLVYALAQVFLFCIFGNRLIEESSSVMEAAYSCHWYDGSEEAKTFVQIVCQQCQKAMTISGAKFFTVSLDLFASVLGAVVTYFMVLVQLK | – | the intensity of response to 1-octen-3-ol was decreased
